Legend:
[1] = target: T1, Recombinant human CTLA4/His (human, UniProt P16410 36-162, limits assumed); experiment: SPR (BiaCore), antibody captured on anti-human Fc, His-tagged analyte, 1:1 model
T1 construct: not shown: His tag
T1 sequence (looked up): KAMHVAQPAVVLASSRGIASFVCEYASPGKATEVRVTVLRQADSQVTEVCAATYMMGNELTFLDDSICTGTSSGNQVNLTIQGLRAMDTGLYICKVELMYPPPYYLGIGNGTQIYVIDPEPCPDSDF
Description: The affinity of antibody CT1E1 for human CTLA4 was also determined using surface plasmon resonance (BiaCore). Anti-human Fc antibody (GE, BR-1008-39) was immobilized on CM5 sensor chip to approximately 1000 RU using standard NHS/EDC coupling methodology. Antibodies (about 10 μg/ml) were captured for 60 s at a flow rate 10 ul/min Recombinant human […] was serially diluted in running buffer (HBS-EP). All measurements were conducted in HBS-EP buffer with a flow rate of 30 μL/min. The antibody was diluted appropriately to obtain a series of concentrations. A 1:1 (Langmuir) binding model was used to fit the data. The Chi2 (chi-squared) value was used as a guideline for fitting quality. Results from the affinity studies are provided below in Table 2.

mouse CTLA4/His = target: T2, mouse CTLA4/His (mouse, UniProt P09793 36-162, limits assumed); experiment: ELISA, CTLA4/His captured on Ni-NTA plate, antibody ~1 ug/mL, anti-human Fc-HRP
T2 construct: also called murine CTLA4; not shown: His tag
Description: Using a 96-well Ni-NTA plate recombinant human CTLA4/His, cynomolgus CTLA4/His or mouse CTLA4/His @ 1 μg/mL were captured. The plate was incubated for 30 min at room temperature, washed 3 times with PBS-Tween (PBST), then anti-CTLA4 antibodies (˜1 μg/mL) diluted in casein were added and incubated for 30 min with shaking. The plate was washed 3 times with PBST, horseradish peroxidase (HRP)-conjugated goat anti-human Fc (1:500 in casein) was added, then 3,3′,5,5′-Tetramethylbenzidine (TMB) was added as substrate and developed about 5 min. 2M H₂SO₄ was used to stop the reaction and the OD was read at 450 nm.

[2] = target: T3, recombinant human CTLA4 (as human Fc fusion) (human, UniProt P16410 37-162, limits assumed); experiment: blocking ELISA: serially diluted IgG pre-mixed with recombinant human CTLA4-Fc, transferred to a Ni-NTA plate coated with His-tagged human CD80 (the blocked ligand); HRP anti-human Fc, OD 450
T3 construct: not shown: human Fc
T3 sequence (looked up): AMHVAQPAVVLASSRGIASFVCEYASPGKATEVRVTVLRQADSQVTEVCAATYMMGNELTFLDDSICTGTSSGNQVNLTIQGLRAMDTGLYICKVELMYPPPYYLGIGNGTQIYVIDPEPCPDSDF
Description: (§1) Assays were performed to determine the ability of antibody CT1E1 to inhibit CD80 and CD86 activity. A 96-well Ni-NTA plate was coated with 1 μg/mL recombinant human CD80 or CD86 with hexahistidine tag at room temperature for 1 h. Pre-mixed 30 μL serial 3-fold diluted IgGs (started from 25 μg/mL) and 30 μL of […] recombinant human CTLA4 (as human Fc fusion) and incubated the mixtures for 30 minutes, then washed the plate with PBS-Tween (PBST) 3 times. The mixtures were transferred 50 μL to the ELISA plate and incubated 30 min with shaking. The plate was washed 3 times with PBST, then horseradish peroxidase (HRP)-conjugated goat anti-human Fc (1:500 in casein) was added, then 3,3′,5,5′-Tetramethylbenzidine (TMB) was added as substrate and developed 30 min. 2M H₂SO₄ was used to stop the reaction and the OD was read at 450 nm.

[3] = target: T3, recombinant human CTLA4 (as human Fc …); experiment: blocking ELISA: serially diluted IgG pre-mixed with recombinant human CTLA4-Fc, transferred to a Ni-NTA plate coated with His-tagged human CD86 (the blocked ligand); HRP anti-human Fc, OD 450
Description: as §1

Kd [1]: 1.81 nM | koff [1]: 0.000242 s⁻¹ | kon [1]: 133000 M⁻¹ s⁻¹ | binding result (mouse CTLA4/His): binds | IC50 [2]: 0.313 nM | IC50 [3]: 0.329 nM
B1: CT1E1 (antibody, V domains shown)
VH: EVQLVESGGGLVQPGRSLRLSCRGSNFNFDDLAISWVRQAPGKGLEWLGFVRSKAYGETTDYVASVKGRFTISRDDSKFIAWLQMDSLKTDDTAVYYCTTFNYWGQGTLVTVSS
VL: QPVLTQPPSVSVAPGKTARISCGGNNIASEAVHWYQKKPGQAPVLVIYYDSDRPSGIPERFSGSNSGNTATLRISRVDAGDEADYYCQVWDRTTDQPVFGGGTKLTVL
notes: also called human anti-CTLA4 antibody CT1E1
